# Measurements published in article PMC10729762, “CsrA selectively modulates sRNA-mRNA regulator outcomes”.
# B1: FnrS (structured_RNA)
# RNA: GCAGGUGAAUGCAACGUCAAGCGAUGGGCGUUGCGCUCCAUAUUGUCUUACUUCCUUUUUUGAAUUACUGCAUAGCACAAUUGAUUCGUACGACGCCGACUUUGAUGAGUCGGCUUUUUUUU
# B2: McaS (structured_RNA)
# RNA: ACCGGCGCAGAGGAGACAAUGCCGGAUUUAAGACGCGGAUGCACUGCUGUGUGUACUGUAGAGUCUGGCGGAUGUCGACAGACUCUAUUUUUU
# B3: ChiX (structured_RNA)
# RNA: ACACCGUCGCUUAAAGUGACGGCAUAAUAAUAAAAAAAUGAAAUUCCUCUUUGACGGGCCAAUAGCGAUAUUGGCCAUUUUUUU
# Target: CsrA;Hfq (Escherichia coli K-12 …, UniProt P69913;P0A6X3 1-61;1-102, |)
# Assay: EMSA; 6 uM CsrA + Hfq, likely ternary complex; 10 nM denatured RNA, 0-6 uM CsrA, 0-3 uM Hfq; 1X binding buffer (10 mM Tris-HCl pH 7.5, 10 mM MgCl2, 100 mM KCl) plus CsrA dilution buffer, 11% glycerol, 20 mM
# Details: protein: recombinant;recombinant; tags: ;; chain copies: 2;6; label: internal 32P-UTP
# Chain of CsrA;Hfq (P69913 whole entry, chain 1 of 2): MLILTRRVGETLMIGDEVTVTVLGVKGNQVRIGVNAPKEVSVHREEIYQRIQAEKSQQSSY
# Chain of CsrA;Hfq (P0A6X3 whole entry, chain 2 of 2): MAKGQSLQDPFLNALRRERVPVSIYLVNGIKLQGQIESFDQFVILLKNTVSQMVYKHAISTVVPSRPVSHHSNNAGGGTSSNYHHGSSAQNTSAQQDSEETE
row,Binder,binding result
1,B1,binds
2,B2,binds
3,B3,binds
